# Article PMC8539922, “Reconstitution of Caveolin-1 into Artificial Lipid Membrane: Characterization by Transmission Electron Microscopy and Solid-State Nuclear Magnetic Resonance” (Molecules, 2021)
# Where no end group is shown, it is not given here.
# B1: CAV1(168-178) peptide (peptide)
# peptide: SNVRINLQKEI
# modifications: not fully specified
# notes: Caveolin-1, residues 168-178 of the α-isoform; The ends of the two caps as printed seem swapped (a rink amide resin gives a C-terminal amide; acetyl is usually N-terminal); also called CAV1 C-terminal peptide; CAV1 C-terminus; source: synthetic peptide (Fmoc solid phase, HPLC purified)
# Molecular target: the molecule itself
# Assay: negative-stain TEM + thioflavin-T fluorescence; peptide dissolved in DMSO, diluted to 1 mg/mL in 20 mM Tris, pH 8.0, incubated at 37 °C for 48 h
protein,measurement,value
B1,binding result,binds
